Substrate: C=C1C[C@]23C[C@@]1(O)CC[C@H]2[C@@]12CCC[C@@](C)(C(=O)O1)[C@H]2[C@@H]3C(=O)O
Assay: tritiated water release from [3H3]GA20, Michaelis-Menten fit (Origin)
Assay type: biochemical, Arabidopsis thaliana
Settings: labelled compound (possible tritium isotope effect), 4 mM 2-oxoglutarate, 0.5 mM FeSO4, 4 mM ascorbate, 4 mM DTT, BSA, catalase, 100 mM Tris-HCl pH 7.9, 30 °C

B1: AtGA3OX4 (Arabidopsis thaliana) (protein)
chain: MPSLAEEICIGNLGSLQTLPESFTWKLTAADSLLRPSSAVSFDAVEESIPVIDLSNPDVTTLIGDASKTWGAFQIANHGISQKLLDDIESLSKTLFDMPSERKLEAASSDKGVSGYGEPRISPFFEKKMWSEGFTIADDSYRNHFNTLWPHDHTKYCGIIQEYVDEMEKLASRLLYCILGSLGVTVEDIEWAHKLEKSGSKVGRGAIRLNHYPVCPEPERAMGLAAHTDSTILTILHQSNTGGLQVFREESGWVTVEPAPGVLVVNIGDLFHILSNGKIPSVVHRAKVNHTRSRISIAYLWGGPAGDVQIAPISKLTGPAEPSLYRSITWKEYLQIKYEVFDKAMDAIRVVNPTN
notes: pET32 Xa/LIC N-terminal poly(His)-thioredoxin fusion expressed in E. coli BL21 (DE3), tag cut at engineered thrombin site, Superdex 75
Km: 0.82 µM
